According to patent US20140088023A1 (UNIVERSITY OF TOLEDO, published 2014):
Ends that are not written are not given here.

T1: soluble guanylyl cyclase alpha 1 (sGCα1) (UniProt Q02108 1-690)
T1 construct: The assay field of each row says which; No construct limits or tags are stated; also called endogenous sGCα1; E. coli-expressed sGCα1
T1 sequence (looked up): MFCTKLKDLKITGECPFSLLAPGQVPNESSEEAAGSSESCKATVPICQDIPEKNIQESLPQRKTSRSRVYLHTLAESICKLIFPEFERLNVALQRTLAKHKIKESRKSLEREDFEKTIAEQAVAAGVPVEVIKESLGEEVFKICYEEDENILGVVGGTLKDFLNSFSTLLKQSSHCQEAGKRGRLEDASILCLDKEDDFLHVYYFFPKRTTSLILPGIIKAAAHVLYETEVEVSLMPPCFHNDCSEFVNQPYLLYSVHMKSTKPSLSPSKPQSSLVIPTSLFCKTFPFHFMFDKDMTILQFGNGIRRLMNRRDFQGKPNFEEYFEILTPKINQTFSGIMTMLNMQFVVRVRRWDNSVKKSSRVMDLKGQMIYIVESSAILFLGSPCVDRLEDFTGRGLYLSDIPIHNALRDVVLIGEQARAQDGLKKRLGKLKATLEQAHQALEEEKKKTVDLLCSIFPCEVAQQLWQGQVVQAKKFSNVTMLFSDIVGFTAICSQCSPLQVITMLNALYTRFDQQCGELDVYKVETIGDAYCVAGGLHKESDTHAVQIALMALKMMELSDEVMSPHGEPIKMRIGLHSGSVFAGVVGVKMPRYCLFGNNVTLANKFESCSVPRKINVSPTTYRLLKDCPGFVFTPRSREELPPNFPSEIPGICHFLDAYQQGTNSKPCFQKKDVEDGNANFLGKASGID


These binders were tested against T1, soluble guanylyl cyclase alpha 1 (sGCα1) (assay: competitive binding assay).

KAFPRRRRRRRR [Peptide KP4-8R]: no binding.

What follows are binders tested against T1, soluble guanylyl cyclase alpha 1 (sGCα1) (assay: cell-based or functional assay).

First: ACKAFRRRRRRRR-NH2 [Peptide FF5-F1A-8R]
Second: TFCKAFPRRRRRRRR-NH2 [Peptide TP7-8R]
The “IC50 (µM), cytotoxicity, Day 3, LNCaP cell culture” value (“IC50 … Day 3, LNCaP cell culture” for short) of the first is 12-fold higher: 200 µM for the first, 16 µM for the second.

Compared with TFCRRRRRRRR [Peptide TC3-8R], Ac-TFCKAFPFHIIRRRRRRRR-OH [Peptide A-8R] is 9-fold lower in “IC50 … Day 3, LNCaP cell culture” value: 72 µM for the first, 8 µM for the second.

Going from FCAAFRRRRRRRR-NH2 [Peptide FF5-K3A-8R] to FCKAARRRRRRRR-NH2 [Peptide FF5-F5A-8R], the “IC50 … Day 3, LNCaP cell culture” value rises from 60 µM to 160 µM (2.7-fold).

TFCKAFRRRRRRRR-NH2 [Peptide TF6-8R] and FCKAFRRRRRRRR-NH2 [Peptide FF5-8R] are within 1.5-fold of each other in “IC50 … Day 3, LNCaP cell culture” value: 18 µM for the first, 22 µM for the second.

Going from FAKAFRRRRRRRR-NH2 [Peptide FF5-C2A-8R] to FCKARRRRRRRR [Peptide FA4-8R], the “IC50 … Day 3, LNCaP cell culture” value falls from roughly 210 µM to 43 µM (4.9-fold).

FMKAFRRRRRRRR-NH2 [Peptide FF5-C2M-8R] and CKAFRRRRRRRR-NH2 [Peptide CF4-8R] are within 1.5-fold of each other in “IC50 … Day 3, LNCaP cell culture” value: 90 µM for the first, 62 µM for the second.

In the case of FCKAFPRRRRRRRR-NH2 [Peptide FP6-8R], the “IC50 … Day 3, LNCaP cell culture” value is reported as 22 µM.

First: ACKAFRRRRRRRR-NH2 [Peptide FF5-F1A-8R]
Second: TFCKAFPRRRRRRRR-NH2 [Peptide TP7-8R]
The “IC50 (µM), cytotoxicity, Day 6, LNCaP cell culture” value (“IC50 … Day 6, LNCaP cell culture” for short) of the first is 7-fold higher: 160 µM for the first, 23 µM for the second.

Going from TFCRRRRRRRR [Peptide TC3-8R] to Ac-TFCKAFPFHIIRRRRRRRR-OH [Peptide A-8R], the “IC50 … Day 6, LNCaP cell culture” value falls from 140 µM to 16 µM (8.8-fold).

Compared with FCAAFRRRRRRRR-NH2 [Peptide FF5-K3A-8R], FCKAARRRRRRRR-NH2 [Peptide FF5-F5A-8R] is 3.2-fold higher in “IC50 … Day 6, LNCaP cell culture” value: 38 µM for the first, 120 µM for the second.

TFCKAFRRRRRRRR-NH2 [Peptide TF6-8R] and FCKAFRRRRRRRR-NH2 [Peptide FF5-8R] are within 1.5-fold of each other in “IC50 … Day 6, LNCaP cell culture” value: 28 µM for the first, 40 µM for the second.

First: FAKAFRRRRRRRR-NH2 [Peptide FF5-C2A-8R]
Second: FCKARRRRRRRR [Peptide FA4-8R]
The “IC50 … Day 6, LNCaP cell culture” value of the first is 1.6-fold higher: 145 µM for the first, 90 µM for the second.

First: FMKAFRRRRRRRR-NH2 [Peptide FF5-C2M-8R]
Second: CKAFRRRRRRRR-NH2 [Peptide CF4-8R]
The “IC50 … Day 6, LNCaP cell culture” value of the first is 1.8-fold lower: 65 µM for the first, 120 µM for the second.

For FCKAFPRRRRRRRR-NH2 [Peptide FP6-8R], the “IC50 … Day 6, LNCaP cell culture” value was 35 µM.
